Consider one molecule from patent publication US20060052582A1, “Identification of inhibitors of mitosis” (priority 2002, published 2006).

The data set concerns Nek6. The data set is described as follows: Activity and phosphorylation of GST Nek6 coexpressed with Nercc1 noncatalytic fragment in HEK293 cells. Type of data set: cell-based, human. As to the method: GST Nek6 was coexpressed with increasing quantities of FLAG Nercc1 (347-979). The kinase activity of GST Nek6 was measured using MBP as substrate.
GST Nek6 was cotransfected in HEK293 cells with increasing amounts of FLAG Nercc1 (347-979), and immunoblots of the extracts were carried out using the indicated antibodies.

Chain of Nek6 (Q9HC98 whole entry, the tested form may be a part): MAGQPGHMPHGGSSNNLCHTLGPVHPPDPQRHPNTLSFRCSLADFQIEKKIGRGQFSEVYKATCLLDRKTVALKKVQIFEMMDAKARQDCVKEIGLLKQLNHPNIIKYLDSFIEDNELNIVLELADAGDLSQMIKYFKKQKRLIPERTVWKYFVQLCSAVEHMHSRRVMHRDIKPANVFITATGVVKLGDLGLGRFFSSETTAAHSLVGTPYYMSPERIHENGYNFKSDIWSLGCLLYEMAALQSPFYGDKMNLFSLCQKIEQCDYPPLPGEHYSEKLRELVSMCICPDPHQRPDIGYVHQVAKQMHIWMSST

B1: FLAG Nercc1 (347-979): FLAG-tagged polypeptide consisting of Nercc1 amino acids 347-979 of SEQ ID NO:2 (protein, listed as Homo sapiens)
chain: SEVYIWGGGKSTPQKLDVIKSGCSARQVCAGNTHFAVVTVEKELYTWVNMQGGTKLHGQLGHGDKASYRQPKHVEKLQGKAIHQVSCGDDFTVCVTDEGQLYAFGSDYYGCMGVDKVAGPEVLEPMQLNFFLSNPVEQVSCGDNHVVVLTRNKEVYSWGCGEYGRLGLDSEEDYYTPQKVDVPKALIIVAVQCGCDGTFLLTQSGKVLACGLNEFNKLGLNQCMSGIINHEAYHEVPYTTSFTLAKQLSFYKIRTIAPGKTHTAAIDERGRLLTFGCNKCGQLGVGNYKKRLGINLLGGPLGGKQVIRVSCGDEFTIAATDDNHIFAWGNGGNGRLAMTPTERPHGSDICTSWPRPIFGSLHHVPDLSCRGWHTILIVEKVLNSKTIRSNSSGLSIGTVFQSSSPGGGGGGGGGEEEDSQQESETPDPSGGFRGTMEADRGMEGLISPTEAMGNSNGASSSCPGWLRKELENAEFIPMPDSPSPLSAAFSESEKDTLPYEELQGLKVASEAPLEHKPQVEASSPRLNPAVTCAGKGTPLTPPACACSSLQVEVERLQGLVLKCLAEQQKLQQENLQIFTQLQKLNKKLEGGQQVGMHSKGTQTAKEEMEMDPKPDLDSDSGCLLGTDSCRPSL
modifications: FLAG tag
Consider B1, for which, for the setting “cotransfected in HEK293 cells”, the “effect on Nek6 activation loop phosphorylation” value is recorded as “suppresses”. Besides, the “effect on kinase activity of coexpressed GST Nek6” value (overexpression in vivo, MBP as substrate) was “inhibited”.
